From patent US5008241A, “Novel insulin peptides” (Novo Nordisk A/S, priority 1985, dated 1991)

Tests used:
[1] = Deamidation products formed on storage at 25° C., pH 3, DISC PAGE analysis; type: physicochemical; conditions: 0.24 mM analog, 3 Zn++ per hexamer
Procedure: Deamidation products formed per month after storage 25 at 25° C. and a pH value of 3.
The compositions tested were as follows: 0.24 mM insulin analog, 0.3% (w/v) m-cresol, 1.6% (w/v) glycerol, 3 Zn^++ per insulin hexamer and 0.01 M sodium acetate to obtain a pH value of 3. The determinations were made using DISC PAGE analysis.

[2] = Di- and polymerization products formed on storage at 25 C, HPSEC; type: physicochemical; conditions: 3 Zn++ per hexamer
Procedure: The compositions tested were as follows: 0.24 mM insulin analog, 0.3% /w/v) m-cresol, 1.6% (w/v) glycerol, 0.01 M sodium acetate and 3 Zn^++ per insulin hexamer. The determination was made using HPSEC (high performance size exclusion chromatography).
A reference insulin having Asn^A21 is included for comparison.

[3] = from Diabetes Care, Vol. 6/Supplement 1 (1983), 4; cited from earlier work

Substance | Deamidation products formed per month [1] | Di- and polymerization products formed per month ([2]; pH of formulation 3.0, 0.24 mM analog) [%] | Di- and polymerization products formed per month ([2]; pH of formulation 4.0, 0.24 mM analog) [%] | Di- and polymerization products formed per month ([2]; pH of formulation 5.0, 0.24 mM analog) [%] | established potency [3] [U/mg dry substance]
Arg^B27 Thr^B30 --NH2 human insulin | approx. 10% | 0.15 | 0.62 | 1.4 | –
monocomponent procine insulin: monocomponent porcine insulin | – | – | – | – | 28.5
